Usually IC50 stands for the point on the concentration scale where inhibition reaches its midpoint. Broadly, the EC50 (read off the curve) is the concentration giving half of the maximal effect.

The target of one assay is T1, recombinant human DLL4 (human, UniProt Q9NR61 25-522).
T1 construct: also called rhDLL4; hDLL4
Briefly: competition AlphaScreen, biot-hDLL4/hNotch1-Fc. Here is the method: In brief, 1 nM biotinylated human DII4 is captured on streptavidin-coated donor beads (20 μg/mL), while 0.4 nM of the receptor human Notch1 (as a Fc fusion protein) is captured on anti-human Fc VHH-coated acceptor beads (20 μg/mL). Both loaded beads are incubated together with a dilution range of the competing VHH (FIG. 4 A-E).
For orientation: In Alpha technology, singlet oxygen from a donor bead excites a nearby acceptor bead.

A further assay has as its target T2, human DLL1 (human, UniProt O00548 18-545, limits assumed).
T2 construct: also called hDLL1
T2 sequence (looked up): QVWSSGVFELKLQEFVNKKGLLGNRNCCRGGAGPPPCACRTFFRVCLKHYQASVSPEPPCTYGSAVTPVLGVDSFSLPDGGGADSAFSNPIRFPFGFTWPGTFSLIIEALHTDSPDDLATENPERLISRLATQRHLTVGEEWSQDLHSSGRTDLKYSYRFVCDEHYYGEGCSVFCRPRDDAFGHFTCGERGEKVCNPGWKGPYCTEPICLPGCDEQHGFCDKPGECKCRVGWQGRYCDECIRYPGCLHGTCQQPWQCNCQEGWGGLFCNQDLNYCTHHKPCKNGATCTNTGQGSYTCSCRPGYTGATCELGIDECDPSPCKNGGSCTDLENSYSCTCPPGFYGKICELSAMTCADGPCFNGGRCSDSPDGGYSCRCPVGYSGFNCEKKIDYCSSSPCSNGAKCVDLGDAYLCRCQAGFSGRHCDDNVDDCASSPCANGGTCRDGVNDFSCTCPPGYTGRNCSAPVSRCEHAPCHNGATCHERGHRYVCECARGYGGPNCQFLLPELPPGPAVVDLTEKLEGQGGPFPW
Briefly: binding ELISA on coated recombinant human DLL1, OD 405 nm. The method, boiled down:
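Plates coated overnight at 4° C with 1 μg/mL ligand, blocked with 1% casein in PBS. VHH dilution series applied; bound VHH detected via mouse anti-myc then anti-mouse-AP conjugate.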

In assay [1] the target is T3, human DLL4 expressed on cells (CHO-hDLL4; HEK293-hDLL4) (human, UniProt Q9NR61 27-685).
T3 construct: full length human DLL4 overexpressed on CHO cells (FMAT, FACS) or HEK293 cells (reporter assay)
Briefly: FACS titration on human DLL4 expressing cells, detection anti-c-myc Alexa647 (Example 5.8, Example 7), MCF.

B1: DLLBII115A05 (VHH)
VHH: EVQLVESGGGLVQPGGSLRLSCAASGFTFGSYDMSWVRRSPGKGPEWVSSINSGGGSTYYADFVKGRFTISRDNAKNTLYLQMNSLKPEDTAVYYCAADRYIRARQGDYWGAYEYDYWGQGTQVTVSS
notes: also called 115A5; DLLBII115A5
Regarding B1, the 50% inhibitory concentration (IC50) in the assay with recombinant human DLL4 came to 5 nM. Also, the binding result with human DLL1 is listed as “no binding (tested: 5e-7 M)”.

B2: DLLBII101G08 (VHH)
VHH: EVQLVESGGGLVQAGGSLRLSCAASGRTFSSYAMAWFRQAPGKEREFVAAIRWSGGTAYYADSVQGRFTISRDNAKNTVYLQMNSLKPEDTAVYYCANRAADTRLGPYEYDYWGQGTQVTVSS
notes: also called 101G8; DLLBII101G8
With B2, the binding result with human DLL1 is “no binding (tested: 5e-7 M)”.

B3: DLLBII129E11 (VHH, not shown: small tags and cut ends)
VHH: EVQLVESGGGLVQAGGSLRLSCAASGRTFSSYAMAWYRQAPGKEREYVAAIRWSGGTAYYADSVQGRFTISRDNAKNTVYLQMNSLKPEDTAVYYCANRAPDTRLRPYLYDYWGQGTQVTVSS
For the molecule B3, the concentration for a half-maximal effect (EC50 (read off the curve)) in assay [1] was approximately 10 nM.

B4: DLLBII56A09 (VHH)
VHH: EVQLVESGGGLVQPGGSLRLSCAASGFTFDDYAIGWFRQAPGKEPEGISCISSSGGITYYADSVKGRFTTSRDNAKNTVYLQMNSLKPEDTAVYYCATPGIAACRGIHYTGQGTQVTVSS
notes: also called 56A9; DLLBII56A9
In the case of B4, the half-inhibitory concentration (IC50) in the assay with recombinant human DLL4 worked out at 1.2 nM.
